Data: patent US20250361322A1 (ICONIC THERAPEUTICS, published 2025)

T1: pig TF ECD-His (TF-His) protein (pig (Sus scrofa))
T1 construct: also called pig TF-His; pTF
T1 chain: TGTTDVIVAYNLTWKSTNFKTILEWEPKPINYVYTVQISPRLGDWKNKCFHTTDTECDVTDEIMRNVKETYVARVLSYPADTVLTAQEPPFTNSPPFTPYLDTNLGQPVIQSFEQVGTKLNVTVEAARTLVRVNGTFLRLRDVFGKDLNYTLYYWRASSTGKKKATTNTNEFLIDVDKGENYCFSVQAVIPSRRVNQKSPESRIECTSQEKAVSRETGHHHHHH


Columns and labels:
[1] = target: T2, rabbit TF ECD-His (TF-His) protein (rabbit (Oryctolagus cuniculus), UniProt P24055 33-250); experiment: Biacore; antibody captured by anti-human IgG on CM5 chip, titration of rabbit TF-His, 1:1 model
T2 construct: also called rabbit TF-His
Method: The ability of certain antibodies was tested for binding to rabbit TF. For rabbit TF Biacore-based measurements, a given anti-TF antibody was captured by an anti-human IgG antibody covalently coupled to a CM5 chip (GE Healthcare Bio-Sciences). Association between the anti-TF antibodies and a five-point three-fold titration of rabbit TF-His starting at 100 nM was measured for 180 to 240 sec. Subsequently, dissociation between the anti-TF antibody and TF-His was measured for 1800 sec. Kinetic data was analyzed and fitted globally using a 1:1 binding model.

[2] = target: T1, pig TF ECD-His (TF-His) protein; experiment: Biacore; antibody captured by anti-human IgG on CM5 chip, titration of pig TF-His, 1:1 model
Method: The ability of certain antibodies was tested for binding to pig TF. For pig TF Biacore-based measurements, a given anti-TF antibody was captured by an anti-human IgG antibody covalently coupled to a CM5 chip (GE Healthcare Bio-Sciences). Association between the anti-TF antibodies and a five-point three-fold titration of pig TF-His starting at 100 nM was measured for 180 to 240 sec. Subsequently, dissociation between the anti-TF antibody and TF-His was measured for 1800 sec. Kinetic data was analyzed and fitted globally using a 1:1 binding model.

[3] = target: human Tissue Factor (hTF) (human, UniProt P13726 33-295); experiment: cell-based or functional assay

T2 sequence (P24055 other isoform, or with tags, fused parts or gaps): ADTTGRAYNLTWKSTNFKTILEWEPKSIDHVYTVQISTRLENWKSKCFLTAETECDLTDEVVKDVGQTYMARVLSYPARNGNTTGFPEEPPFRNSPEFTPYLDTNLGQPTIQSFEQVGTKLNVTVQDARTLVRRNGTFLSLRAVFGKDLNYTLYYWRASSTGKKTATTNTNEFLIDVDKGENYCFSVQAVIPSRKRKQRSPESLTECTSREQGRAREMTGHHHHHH

| Binder | Kd [1] [nM] | Kd [2] [nM] | IC50, cell viability of A431 cells, Secondary ADC (antibody with anti-human Fc Fab:MMAF), Continuous (FIG. 18B) [3] [nM] |
| --- | --- | --- | --- |
| anti-TF antibody 43D8 (antibody, human IgG1, V domains shown, Human IgG1) VH: QVQLQQWGAGLLKPSETLSLTCAVYGGSLSGYYWSWIRQPPGKGLEWIGEIGASGSTRYNPSLKSRVTISVDTSKNQFSLKLSSVTAADTAVYYCARDTPYYYEGGYYYYMDVWGKGTTVTVSS VL: EIVLTQSPGTLSLSPGERATLSCRASQSVSSSFLAWYQQKPGQAPRLLIYGAYSRATGIPDRFSGSGSGTDFTLTISRLEPEDFAVYYCQQAGVVPYTFGGGTKVEIK | 7.7 | 19.2 | – |
| anti-TF antibody 25A (antibody, human IgG1, V domains shown, Human IgG1) VH: QVQLVQSGAEVKKPGASVKVSCKASGYTFDVYGISWVRQAPGQGLEWMGWIAPYNGNTNYAQKLQGRVTMTTDTSTSTAYMELRSLRSDDTAVYYCARDAGTYSPFGYGMDVWGQGTTVTVSS VL: DIQMTQSPSTLSASVGDRVTITCRASQSISSWLAWYQQKPGKAPKLLIYKASSLESGVPSRFSGSGSGTEFTLTISSLQPDDFATYYCQQFQSLPPFTFGGGTKVEIK | 50.5 | 18.7 | 0.11 |
| anti-TF antibody 25A5-T (antibody, human IgG1, V domains shown, Human IgG1) VH: QVQLVQSGAEVKKPGASVKVSCKASGYTFDAYGISWVRQAPGQGLEWMGWIAPYSGNTNYAQKLQGRVTMTTDTSTSTAYMELRSLRSDDTAVYYCARDAGTYSPFGYGMDVWGQGTTVTVSS VL: DIQMTQSPSTLSASVGDRVTITCRASESISNWLAWYQQKPGKAPKLLIYKAYSLEYGVPSRFSGSGSGTEFTLTISSLQPDDFATYYCQQFQKLPPFTFGGGTKVEIK | 5.4 | 4.5 | – |
| anti-TF antibody 25A5 (antibody, human IgG1, V domains shown, Human IgG1) VH: QVQLVQSGAEVKKPGASVKVSCKASGYTFDVYGISWVRQAPGQGLEWMGWIAPYSGNTNYAQKLQGRVTMTTDTSTSTAYMELRSLRSDDTAVYYCARDAGTYSPFGYGMDVWGQGTTVTVSS VL: DIQMTQSPSTLSASVGDRVTITCRASESISNWLAWYQQKPGKAPKLLIYKAYSLEYGVPSRFSGSGSGTEFTLTISSLQPDDFATYYCQQFQKLPPFTFGGGTKVEIK | 5.4 | 5.2 | – |
| anti-TF antibody 25G1 (antibody, human IgG1, V domains shown, Human IgG1) VH: QVQLVQSGAEVKKPGASVKVSCKASGYTFRSYGISWVRQAPGQGLEWMGWVAPYSGNTNYAQKLQGRVTMTTDTSTSTAYMELRSLRSDDTAVYYCARDAGTYSPYGYGMDVWGQGTTVTVSS VL: DIQMTQSPSTLSASVGDRVTITCRASHSIDSWLAWYQQKPGKAPKLLIYKASYLESGVPSRFSGSGSGTEFTLTISSLQPDDFATYYCQLFQSLPPFTFGGGTKVEIK | 3.6 | 2.6 | 0.08 |
| anti-TF antibody 25A3 (antibody, human IgG1, V domains shown, Human IgG1) VH: QVQLVQSGAEVKKPGASVKVSCKASGYTFDVYGISWVRQAPGQGLEWMGWIAPYSGNTNYAQKLQGRVTMTTDTSTSTAYMELRSLRSDDTAVYYCARDAGTYSPFGYGMDVWGQGTTVTVSS VL: DIQMTQSPSTLSASVGDRVTITCQASQSINNWLAWYQQKPGKAPKLLIYKAYNLESGVPSRFSGSGSGTEFTLTISSLQPDDFATYYCQLFQSLPPFTFGGGTKVEIK | – | 5.5 | 0.09 |
| anti-TF antibody 25G (antibody, human IgG1, V domains shown, Human IgG1) VH: QVQLVQSGAEVKKPGASVKVSCKASGYTFRSYGISWVRQAPGQGLEWMGWVAPYNGNTNYAQKLQGRVTMTTDTSTSTAYMELRSLRSDDTAVYYCARDAGTYSPYGYGMDVWGQGTTVTVSS VL: DIQMTQSPSTLSASVGDRVTITCRASQSISSWLAWYQQKPGKAPKLLIYKASSLESGVPSRFSGSGSGTEFTLTISSLQPDDFATYYCQQFQSLPPFTFGGGTKVEIK | 75.5 | 26 | – |
| anti-TF antibody 25G9 (antibody, human IgG1, V domains shown, Human IgG1) VH: QVQLVQSGAEVKKPGASVKVSCKASGYTFRSYGISWVRQAPGQGLEWMGWVAPYSGNTNYAQKLQGRVTMTTDTSTSTAYMELRSLRSDDTAVYYCARDAGTYSPYGYGMDVWGQGTTVTVSS VL: DIQMTQSPSTLSASVGDRVTITCQASQSIDSWLAWYQQKPGKAPKLLIYSASYLESGVPSRFSGSGSGTEFTLTISSLQPDDFATYYCQRFQSLPPFTFGGGTKVEIK | 4.2 | 3.3 | – |
